From the nanobody polyreactivity screen of Harvey et al. (2022) come the findings set out here.

The series is described as follows: yeast display, Sf9 membrane polyspecificity reagent, FACS + sequencing; frameworks hold sequencing errors. The method in brief: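 In a synthetic yeast display library (Saccharomyces cerevisiae BJ5465), nanobody expression was induced with galactose for 36–48 hours. FACS gates were set low and high (top ~1%) using anti-HA fluorescence for expression and streptavidin fluorescence for binding of the Sf9 membrane reagent. Each polyreactivity label is drawn from the gate of origin.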
Regarding “QVQLVESGGGLVQAGGSLRLSCAASGSTFRTYAMGWYRQAPGTEREFVAVISASGGSTYYADSVKGRFTISRDNAKNTVYLQMNSQKPEDTAVYYCNAGRPRFYRSRWYYYGYGYWGQGTQVTVSS”, the “polyreactivity (PSR sort gate)” value is listed as “high polyreactivity”.
The entry for “QVQLVESGGGLVQAGGSLRLSCAASGGTFSVYAMGWYRQAPGKEREFVASITYGGGITYYADSVKGRFTISRDNAKNTVYLQMNSLKPEDTAVYYCAVDRRVLWYDMDYWGQGTQVTVSS” is “high polyreactivity”.
The entry for “QVQLVESGGGLVQAGGSLRLSCAASGSIFIYNVMGWYRQAPGKERELVATIRGSGGSTYYADSVKGRFTISRDNAQNTVYLQMNSLKPEDTAVYYCARRDYPVQWGRAYNYWGQGTQVTVSS” is “high polyreactivity”; for “QVQLVESGGGLVQAGGSLRLICAASGLTFLNNAMGSYRQAPGKERELVAAISDGGSTNYADSVKGRFTISRDNAKNTVYLQMNSLKAEDTAVYYCAAVYTSASSGSWGQGTQVTVSS” it is “low polyreactivity”; for “QVQLVESGGGLVQAGGSLRLSCAASGRIFVRYAMGWYRQAPGKERELVATITKNGGRTYYADSVKGRFTISRDNAKNTVYLQMNSLKPEDTAVYYCAARPTYVADHLRYGYWGQGTQVTVSS” it is “high polyreactivity”.
With “QVQLVESGGGLVQAVGSLRLSCAASGRTFYSYAMGWYRQAPGKERELVAAISRTGGSTYYADSVKGRFTISLDNAKNTVYLQMNSLKPEDTAVYYCAAVYRRNEFGYWGQGTQVTVSS”, the “polyreactivity (PSR sort gate)” value was “high polyreactivity”.
With “QVQLVESGGGLVQAGGSLRLSCAASGSIFVRYTMGWYRQAPGKERELVAAISWGGGSTYYADSVKGRFTISRDNAKNTVYLQMNSLKPEDTAVYYCNKRYIQLYDYWGQGTQVTVSS” the entry was “low polyreactivity”; with “QVQLVESGGGLVQAGGSLRLSCAASGRIFTRYAMGWYRQAPGKERELVSAISSGGSTYYADSVKGRFTISRDNAKNTVYLQMNSLKPEDTAVYYCAAKTRPQRTYSTRQQMNYWGQGTQVTVSS”, “high polyreactivity”.
For the sequence “QDQLVESAGGLVQAGGSLRLSCAASGSTSQSNAMGWYREAPGKDRELVAAISWSGTSTYYADSVKGRFTISRDNAKNTVYLQMNRLKPEDTAGYYCAADYIFEYDYWGQGTQVTVSS”, the “polyreactivity (PSR sort gate)” value is recorded as “low polyreactivity”.
On to “QVQLVESGGGLVQAGGSLRLSCAASGRTFGYNAMGWYRQAPGKERELVAAITIGGSTNYADSVNGRFTISRDNAKNTVYLQMNSLKPEDTAVYYCAAYDTLLYWVEFYYWGQGTQVTVSS”, for which the “polyreactivity (PSR sort gate)” value is listed as “low polyreactivity”.
With “QVQLVESGGGLVQAGGSLRLSCAASVRIFYRYGMGLYRQAPGKERELVASITRGGSTYYADSVKGRFTISRDNAKNTVYLQMNSLKPEDTAVYYCATKSSAGYDYWGQGTQVTVSS” the entry was “low polyreactivity”; with “QVQLVESGGGLDQAGGSHRLSCAASGSTFYPYAMRWYRQAPGKERELVAGITVIDGSTYYADSVKGRFTMSRDNAKNPVYFQMNSLKPEDTAVYYCAVDGPNQVQEYGYWGQGTQVTVSS”, “low polyreactivity”.
On to “QVQLVESGGGLVQAGGSLRLSCAASGLIFDPNTMGWYRQAPGKERELVAAISSGGDTNYADSVKGRFTISRDNAKNTVYLQMNSQKPEDTAVYYCATDIRFHDPSEYEGVHFEYWGQGTQVTVSS”, for which the “polyreactivity (PSR sort gate)” value is “low polyreactivity”.
The entry for “QVQLVESGGGLVQAGGSLRLSCAASGSTFYAKAMGLYRQAPGKEREFVAVITQSGGSTYYADSVKGRFTISRDNAKNTVYLQMNSLKPEDTAVYYCAKTHYRRSLSMYYWGQGTQVTVSS” is “low polyreactivity”; for “QVQLVESGGGLVQAGGSLRLSCAASGRIFRYYTMGWYRQAHGKEREFVATITSSGGSTNYADSVKGRFTISRDNAKNSVYIQTNSLKPEDTAVYYCAKTSRAPWDGYYWGEGTQVTVSS” it is “low polyreactivity”; for “QVQLVESGVGVVQAGGSLRLSCAASGRIFYGYAMGWYRQAPGKERELVAAISRGGTRTFYADSVKGRFTISRDNAKNTVYVQMNSLKPEDTAVYYCAARKRDFYSGYEYYYWGQGTQVTVSS” it is “high polyreactivity”.
With “QVQLVESGGGLVQAGGSLRLSCAASGFIFKTYAMGWYRQAPGKERELVARISKSSGNTYYADSVKGRFTISRDNAKNTVYLQMNSLKPEDTAVYYCNRRHTSKNAYTSPSEYDYWGQGTQVTVSS” the entry was “low polyreactivity”; with “QVQLLESGGGLVQAGGSLRLSCAASGFIFKGNAMGWYRQAPGKERELVAAITNRGGGTYYADSVKGRFTISRDNAKNTVYLLMNSLKPEDTAVYYCAKAYTLPFHPYDYWGQGTQVTVSS”, “high polyreactivity”; with “QVQLVESGGGLVQAGGSLRLSCAASGSTFSGYAMGWYRQAPGKERDLVAAITKSGGRTYYADSVKGRFTISRDNAQNTVYLQMNSLKQEDTAVYYCAKAYPGTYREYDYWGQGTQVTVSS”, “high polyreactivity”.
With “QVQLVESGGGLVQAGGSLRLSCAASGFIFYRYAMGWYRQAPGKERELVAAISSGGGRTYYADSVKGRFTISRDNAKNTVYLQMNSLKPEDTAVYYCAKGYFWSSYVSSRYGSWGQGTQVTVSS” the entry was “high polyreactivity”; with “QVQLVESGGGLVQAGGSLRLSCAASGGIFVYNMGWYRQAPGKERELVAAISVSGGSTYYADSVKGRFTISRDNAKNTVYLQMNSLKPEDTAVYYCAASRPPYRDDYWGQGSQVTVSS”, “high polyreactivity”.
As to “QVQLVQSGGGLVQAGGSLRLSCAASGSIINKYAMGWYRQAPGKERELVAAISFSGGSTYYADSVKGRFTISRDNAKITVYLQMNSLKPEDTAVYYCAAYHRPYQSYYWGKGTQVTVSS”, the “polyreactivity (PSR sort gate)” value is listed as “high polyreactivity”.
The entry for “QVQLVESGGGLVQAGGSLRLICAASGLTFRVYTMGWYRQAPGQERELVASISRSGASTYYADSVKGRFTISRDNAKNTVYLQMNSLKPEDTAVYYCNAVTSWPRRDFDYWGQGTQVTVSS” is “high polyreactivity”; for “QVQLVESGGGLVQAGGSLRLSFAASGSTFSRNTMGWYRQAPGKERELVAAISKSGGRTYYADSVKGRFTISRDNAKNTVYLQINSLKPEDSAVYYCNAAVYAYASDYWGQGTQVTVSS” it is “high polyreactivity”; for “QVQLVESGGGLVQAGGRLRISCAASGRTFSHNTMGWYRQAPGKERELVAAITGSGASTYYADSVKGRFTISRDNAKNTVYLQMNSLKPEDTAVDYCAKVSRQSWDEYDTWGQGTQVTVSS” it is “low polyreactivity”.
With “QVQLVESGGGLVQAGGSLRLSCAASGFIFYRNTMGWYRQAPGKESELVAAISRRGGNTYYADSVKGRFTISRDYAKNTVYLQMNSLKPEDTAVYYCNADGNAVYNRVSYDYWGQGTQVTVSS”, the “polyreactivity (PSR sort gate)” value is “high polyreactivity”.
Turning to “QVQLVESGGGLVQAGGSLRLSCAGSGRIFFWYVMGWYRQAPGKERELVAAISSGGRTYYADSVKGRFTISRDNAKNTVYLQMNSLKPEDTAVYYCAAVRRYLKAAYGYWGQGTQVTVSS”, the “polyreactivity (PSR sort gate)” value was “low polyreactivity”.
With “QVHLVESGGGLVQAGGSLRLSCAASGGIFYAYDMGWYRQAPGKERELVAAITWTGGTTYYADSVKGRFTISRDNAKKTVYLLMNSLKPEDTAVYYCAADDGTNSTARDKDDYYYWGQGTEVTVSS” the entry was “low polyreactivity”; with “QVQLVESGGGLVQAGGSLRISCAASGSTFDPNAMGWYRQAPGKERELVAVIDSGDGTTYYADSVKGRFTISRDIAKNTVSFQMISQKREDTAVYYCAVDESTSYYDDHEDYWGQRTQVTVSS”, “low polyreactivity”; with “QVQLVESGGGLVQAGGSLRLSCAASGRIFYGYAMGWYRQAPGKERELVAAISRGGTRTFYADSVKGRFTISRDNAKNTVYLQMNSLKPEDTAVYYCAADPGPHRYSYDYWGQGTQVTVSS”, “high polyreactivity”.
